# Data from publication PMC3192862 (Molecular Biology of the Cell, 2011).
# Positions count from the first letter of the chain named. Numbers in names are those of the source.
# T1: fission yeast profilin (fission yeast, UniProt P39825 1-127)
# T1 sequence (looked up): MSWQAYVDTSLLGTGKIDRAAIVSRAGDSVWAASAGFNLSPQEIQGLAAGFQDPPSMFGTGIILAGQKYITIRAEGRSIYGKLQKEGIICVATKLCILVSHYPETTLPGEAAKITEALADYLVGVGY
# B1: For3(FH1) (domain or fragment, S. pombe, UniProt O94532 718-837, looked up)
# chain: SDTVEEQQKLLLKSPPPPPPAVIVPTPAPAPIPVPPPAPIMGGPPPPPPPPGVAGAGPPPPPPPPPAVSAGGSRYYAPAPQAEPEPKIDETSLTEEQKIQLEEARKQRKAADDAARAAIE
# B2: Cdc12(FH1) (domain or fragment, S. pombe, UniProt Q10059 882-972, looked up)
# chain: NNSKITNFDIPNDATSLPTIITHPTPPPPPPLPVKTSLNTFSHPDSVNIVANDTSVAGVMPAFPPPPPPPPPLVSAAGGKFVSPAVSNNIS
# B3: Fus1(FH1) (domain or fragment, S. pombe, UniProt Q10719 792-862, looked up)
# chain: MRIKEVIDGNPFKAPPPAPLPPPAPPLPTAMSSLQKFEKNDSQIFRKTIIIPENISIDDIFKFCSGSESEV
# B4: Cdc12(FH2), wild type (domain or fragment, S. pombe, UniProt Q10059 973-1390, looked up)
# chain: KDDLHKTTGLTRRPTRRLKQMHWEKLNSGLEFTFWTGPSDEANKILETLHTSGVLDELDESFAMKEAKTLVKKTCARTDYMSSELQKLFGIHFHKLSHKNPNEIIRMILHCDDSMNECVEFLSSDKVLNQPKLKADLEPYRIDWANGGDLVNSEKDASELSRWDYLYVRLIVDLGGYWNQRMNALKVKNIIETNYENLVRQTKLIGRAALELRDSKVFKGLLYLILYLGNYMNDYVRQAKGFAIGSLQRLPLIKNANNTKSLLHILDITIRKHFPQFDNFSPELSTVTEAAKLNIEAIEQECSELIRGCQNLQIDCDSGALSDPTVFHPDDKILSVILPWLMEGTKKMDFLKEHLRTMNTTLNNAMRYFGEQPNDPNSKNLFFKRVDSFIIDYSKARSDNLKSEEEEASQHRRLNLVN
# B5: Cdc12(FH2) K991A (domain or fragment, S. pombe, UniProt Q10059 973-1390, looked up)
# chain: B4 chain with K19A
# B6: Cdc12(FH2) K1226A (domain or fragment, S. pombe, UniProt Q10059 973-1390, looked up)
# chain: B4 chain with K254A
# B7: Cdc12(FH2) I1063A (domain or fragment, S. pombe, UniProt Q10059 973-1390, looked up)
# chain: B4 chain with I91A
# B8: Cdc12(FH2) G1201R, N1202P (domain or fragment, S. pombe, UniProt Q10059 973-1390, looked up)
# chain: B4 chain with G229R, N230P
# Target: T1, fission yeast profilin
# Assay: other fluorescence titration
row,Kd,Binder
1,6.5 µM,B1
2,1.7 µM,B2
3,1.3 µM,B3

# Target: the molecule itself
# Assay: SEC
row,Binder,binding result
1,B4,binds
2,B5,binds
3,B6,binds
4,B7,binds
5,B8,binds
